Test results reported in PMC3472523 (2012).
Positions of bridges follow the written chain, without caps; N, C: chain ends. fluorescein = fluorescein, an N-terminal fluorescent label

B1: Fl-1 (Bph-cross-linked Noxa peptide 1) (peptide)
chain: fluorescein-AACLRRIGDCVNLRQKLLN-NH2
modifications: linker 3-10 via biphenyl
B2: Noxa peptide 5 (peptide)
chain: AACLRAIGDCVNLAQALLN
HELM: PEPTIDE1{[ac].A.A.[dC].L.R.A.I.G.D.C.V.N.L.A.Q.A.L.L.N.[am]}|CHEM1{[c1cc(-c2ccc(C[*:2])cc2)ccc1C[*:1]]}$PEPTIDE1,CHEM1,4:R3-1:R1|PEPTIDE1,CHEM1,11:R3-1:R2$$$V2.0
SMILES: CC[C@H](C)[C@@H]1NC(=O)[C@H](C)NC(=O)[C@H](CCCNC(=N)N)NC(=O)[C@H](CC(C)C)NC(=O)[C@H](NC(=O)[C@H](C)NC(=O)[C@H](C)NC(C)=O)CSCc2ccc(cc2)-c2ccc(cc2)CSC[C@@H](C(=O)N[C@H](C(=O)N[C@@H](CC(N)=O)C(=O)N[C@@H](CC(C)C)C(=O)N[C@@H](C)C(=O)N[C@@H](CCC(N)=O)C(=O)N[C@@H](C)C(=O)N[C@@H](CC(C)C)C(=O)N[C@@H](CC(C)C)C(=O)N[C@@H](CC(N)=O)C(N)=O)C(C)C)NC(=O)[C@H](CC(=O)O)NC(=O)CNC1=O
B3: Noxa peptide 7 (peptide)
chain: AACLRRIGDCVNLRQKLLN
HELM: PEPTIDE1{[COC(=O)[*:2]].[meA].[meA].[dC].L.R.R.I.G.D.C.V.N.L.R.Q.K.L.L.N.[am]}|CHEM1{[c1cc(-c2ccc(C[*:2])cc2)ccc1C[*:1]]}$PEPTIDE1,CHEM1,4:R3-1:R1|PEPTIDE1,CHEM1,11:R3-1:R2$$$V2.0
SMILES: CC[C@H](C)[C@@H]1NC(=O)[C@H](CCCNC(=N)N)NC(=O)[C@H](CCCNC(=N)N)NC(=O)[C@H](CC(C)C)NC(=O)[C@H](NC(=O)[C@H](C)N(C)C(=O)[C@H](C)N(C)C(=O)OC)CSCc2ccc(cc2)-c2ccc(cc2)CSC[C@@H](C(=O)N[C@H](C(=O)N[C@@H](CC(N)=O)C(=O)N[C@@H](CC(C)C)C(=O)N[C@@H](CCCNC(=N)N)C(=O)N[C@@H](CCC(N)=O)C(=O)N[C@@H](CCCCN)C(=O)N[C@@H](CC(C)C)C(=O)N[C@@H](CC(C)C)C(=O)N[C@@H](CC(N)=O)C(N)=O)C(C)C)NC(=O)[C@H](CC(=O)O)NC(=O)CNC1=O
B4: Noxa peptide 3 (peptide)
chain: AACLRAIGDCVNLRQKLLN
HELM: PEPTIDE1{[ac].A.A.[dC].L.R.A.I.G.D.C.V.N.L.R.Q.K.L.L.N.[am]}|CHEM1{[c1cc(-c2ccc(C[*:2])cc2)ccc1C[*:1]]}$PEPTIDE1,CHEM1,4:R3-1:R1|PEPTIDE1,CHEM1,11:R3-1:R2$$$V2.0
SMILES: CC[C@H](C)[C@@H]1NC(=O)[C@H](C)NC(=O)[C@H](CCCNC(=N)N)NC(=O)[C@H](CC(C)C)NC(=O)[C@H](NC(=O)[C@H](C)NC(=O)[C@H](C)NC(C)=O)CSCc2ccc(cc2)-c2ccc(cc2)CSC[C@@H](C(=O)N[C@H](C(=O)N[C@@H](CC(N)=O)C(=O)N[C@@H](CC(C)C)C(=O)N[C@@H](CCCNC(=N)N)C(=O)N[C@@H](CCC(N)=O)C(=O)N[C@@H](CCCCN)C(=O)N[C@@H](CC(C)C)C(=O)N[C@@H](CC(C)C)C(=O)N[C@@H](CC(N)=O)C(N)=O)C(C)C)NC(=O)[C@H](CC(=O)O)NC(=O)CNC1=O
B5: Noxa peptide 1 (peptide)
chain: AACLRRIGDCVNLRQKLLN
HELM: PEPTIDE1{[ac].A.A.C.L.R.R.I.G.D.C.V.N.L.R.Q.K.L.L.N.[am]}|CHEM1{[c1cc(-c2ccc(C[*:2])cc2)ccc1C[*:1]]}$PEPTIDE1,CHEM1,4:R3-1:R1|PEPTIDE1,CHEM1,11:R3-1:R2$$$V2.0
SMILES: CC[C@H](C)[C@@H]1NC(=O)[C@H](CCCNC(=N)N)NC(=O)[C@H](CCCNC(=N)N)NC(=O)[C@H](CC(C)C)NC(=O)[C@@H](NC(=O)[C@H](C)NC(=O)[C@H](C)NC(C)=O)CSCc2ccc(cc2)-c2ccc(cc2)CSC[C@@H](C(=O)N[C@H](C(=O)N[C@@H](CC(N)=O)C(=O)N[C@@H](CC(C)C)C(=O)N[C@@H](CCCNC(=N)N)C(=O)N[C@@H](CCC(N)=O)C(=O)N[C@@H](CCCCN)C(=O)N[C@@H](CC(C)C)C(=O)N[C@@H](CC(C)C)C(=O)N[C@@H](CC(N)=O)C(N)=O)C(C)C)NC(=O)[C@H](CC(=O)O)NC(=O)CNC1=O
B6: Noxa peptide 4 (peptide)
chain: AACLRAIGDCVNLAQKLLN
HELM: PEPTIDE1{[ac].A.A.[dC].L.R.A.I.G.D.C.V.N.L.A.Q.K.L.L.N.[am]}|CHEM1{[c1cc(-c2ccc(C[*:2])cc2)ccc1C[*:1]]}$PEPTIDE1,CHEM1,4:R3-1:R1|PEPTIDE1,CHEM1,11:R3-1:R2$$$V2.0
SMILES: CC[C@H](C)[C@@H]1NC(=O)[C@H](C)NC(=O)[C@H](CCCNC(=N)N)NC(=O)[C@H](CC(C)C)NC(=O)[C@H](NC(=O)[C@H](C)NC(=O)[C@H](C)NC(C)=O)CSCc2ccc(cc2)-c2ccc(cc2)CSC[C@@H](C(=O)N[C@H](C(=O)N[C@@H](CC(N)=O)C(=O)N[C@@H](CC(C)C)C(=O)N[C@@H](C)C(=O)N[C@@H](CCC(N)=O)C(=O)N[C@@H](CCCCN)C(=O)N[C@@H](CC(C)C)C(=O)N[C@@H](CC(C)C)C(=O)N[C@@H](CC(N)=O)C(N)=O)C(C)C)NC(=O)[C@H](CC(=O)O)NC(=O)CNC1=O
B7: Noxa peptide 2 (peptide)
chain: AACLRRIGDCVNLRQKLLN
HELM: PEPTIDE1{[ac].A.A.[dC].L.R.R.I.G.D.C.V.N.L.R.Q.K.L.L.N.[am]}|CHEM1{[c1cc(-c2ccc(C[*:2])cc2)ccc1C[*:1]]}$PEPTIDE1,CHEM1,4:R3-1:R1|PEPTIDE1,CHEM1,11:R3-1:R2$$$V2.0
SMILES: CC[C@H](C)[C@@H]1NC(=O)[C@H](CCCNC(=N)N)NC(=O)[C@H](CCCNC(=N)N)NC(=O)[C@H](CC(C)C)NC(=O)[C@H](NC(=O)[C@H](C)NC(=O)[C@H](C)NC(C)=O)CSCc2ccc(cc2)-c2ccc(cc2)CSC[C@@H](C(=O)N[C@H](C(=O)N[C@@H](CC(N)=O)C(=O)N[C@@H](CC(C)C)C(=O)N[C@@H](CCCNC(=N)N)C(=O)N[C@@H](CCC(N)=O)C(=O)N[C@@H](CCCCN)C(=O)N[C@@H](CC(C)C)C(=O)N[C@@H](CC(C)C)C(=O)N[C@@H](CC(N)=O)C(N)=O)C(C)C)NC(=O)[C@H](CC(=O)O)NC(=O)CNC1=O
B8: Noxa peptide 6 (peptide)
chain: AACLRRIGDCVNLRQKLLN
HELM: PEPTIDE1{[COC(=O)[*:2]].[meA].A.[dC].L.R.R.I.G.D.C.V.N.L.R.Q.K.L.L.N.[am]}|CHEM1{[c1cc(-c2ccc(C[*:2])cc2)ccc1C[*:1]]}$PEPTIDE1,CHEM1,4:R3-1:R1|PEPTIDE1,CHEM1,11:R3-1:R2$$$V2.0
SMILES: CC[C@H](C)[C@@H]1NC(=O)[C@H](CCCNC(=N)N)NC(=O)[C@H](CCCNC(=N)N)NC(=O)[C@H](CC(C)C)NC(=O)[C@H](NC(=O)[C@H](C)NC(=O)[C@H](C)N(C)C(=O)OC)CSCc2ccc(cc2)-c2ccc(cc2)CSC[C@@H](C(=O)N[C@H](C(=O)N[C@@H](CC(N)=O)C(=O)N[C@@H](CC(C)C)C(=O)N[C@@H](CCCNC(=N)N)C(=O)N[C@@H](CCC(N)=O)C(=O)N[C@@H](CCCCN)C(=O)N[C@@H](CC(C)C)C(=O)N[C@@H](CC(C)C)C(=O)N[C@@H](CC(N)=O)C(N)=O)C(C)C)NC(=O)[C@H](CC(=O)O)NC(=O)CNC1=O
B9: Noxa peptide 8 (peptide)
chain: AACLRAIGDCVNLAQALLN
HELM: PEPTIDE1{[COC(=O)[*:2]].[meA].[meA].[dC].L.R.A.I.G.D.C.V.N.L.A.Q.A.L.L.N.[am]}|CHEM1{[c1cc(-c2ccc(C[*:2])cc2)ccc1C[*:1]]}$PEPTIDE1,CHEM1,4:R3-1:R1|PEPTIDE1,CHEM1,11:R3-1:R2$$$V2.0
SMILES: CC[C@H](C)[C@@H]1NC(=O)[C@H](C)NC(=O)[C@H](CCCNC(=N)N)NC(=O)[C@H](CC(C)C)NC(=O)[C@H](NC(=O)[C@H](C)N(C)C(=O)[C@H](C)N(C)C(=O)OC)CSCc2ccc(cc2)-c2ccc(cc2)CSC[C@@H](C(=O)N[C@H](C(=O)N[C@@H](CC(N)=O)C(=O)N[C@@H](CC(C)C)C(=O)N[C@@H](C)C(=O)N[C@@H](CCC(N)=O)C(=O)N[C@@H](C)C(=O)N[C@@H](CC(C)C)C(=O)N[C@@H](CC(C)C)C(=O)N[C@@H](CC(N)=O)C(N)=O)C(C)C)NC(=O)[C@H](CC(=O)O)NC(=O)CNC1=O

These binders were tested against Bcl-xL (Homo sapiens, UniProt Q07817) (assay: fluorescence polarization).
Sequence of Bcl-xL (Q07817 whole entry): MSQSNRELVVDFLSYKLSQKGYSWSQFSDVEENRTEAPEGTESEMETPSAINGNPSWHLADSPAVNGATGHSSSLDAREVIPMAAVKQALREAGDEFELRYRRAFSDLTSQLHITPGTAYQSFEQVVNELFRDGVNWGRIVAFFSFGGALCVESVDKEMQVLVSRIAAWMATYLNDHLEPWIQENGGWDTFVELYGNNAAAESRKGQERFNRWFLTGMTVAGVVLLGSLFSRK
B1 was tested, and the Kd was over 1000 nM.

Target: T1, Mcl-1 (Mus musculus, UniProt P97287)
T1 chain: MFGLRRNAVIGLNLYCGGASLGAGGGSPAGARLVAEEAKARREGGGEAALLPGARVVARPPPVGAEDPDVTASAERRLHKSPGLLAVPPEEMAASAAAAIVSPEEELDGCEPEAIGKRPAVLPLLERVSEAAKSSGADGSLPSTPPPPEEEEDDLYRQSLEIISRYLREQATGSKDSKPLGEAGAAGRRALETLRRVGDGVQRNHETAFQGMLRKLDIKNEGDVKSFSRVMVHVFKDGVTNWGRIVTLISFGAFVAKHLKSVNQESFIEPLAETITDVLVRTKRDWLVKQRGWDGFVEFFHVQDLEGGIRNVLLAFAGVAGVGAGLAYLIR
Assay: competitive fluorescence polarization
B2 was tested, and the Ki was 29 nM.
With B3 the Ki was 22 nM.
B4 was tested, and the Ki was 23 nM.
B5 showed a Ki of 10 nM.
Binder B6 has a Ki of 28 nM.
Binder B7 has a Ki of 54 nM.
Work on B8 yielded a Ki of 32 nM.
In the case of B9, the Ki is reported as 22 nM.
